Test results taken from patent US20230019342A1.
One block for each binder: values may come before it. Square brackets hold non-standard residues; d marks the D form. Primed or numbered codes have the meaning given here. Ends that are not written are not given here. * marks the point of attachment. D‑Lys(pentyne) = D-Lys(pentyne) amide, alkyne-bearing D-lysine, C#CCCC(=O)NCCCC[C@@H](N*)C(N)=O; S3(3) = biotin-PEG2-acylated azidolysine clicked to D-Pra carrying 5-azido-pentanoic acid; Lys(N3) = [N-]=[N+]=NCCCC[C@H](N)C(=O)O; S3″ = biotin-PEG2 linker with azide; dPra = C#CC[C@@H](N)C(=O)O

Tests used:
[1] = biological target: Active Akt2 (with N terminal His6 tag) (human) (UniProt P31751); test: cell-based or functional assay
[2] = biological target: Inactive Akt2 (with N terminal His6 tag) (human) (UniProt P31751); test: ELISA, immobilised C-tL, active against inactive Akt2 (FIG. 23E)
[3] = biological target: Active Akt2 (with N terminal His6 tag) (human) (UniProt P31751); test: single component ELISA, C-tL as surface-localized capture agent (FIG. 23A)
[4] = biological target: Active Akt1 (with N terminal His6 tag) (human) (UniProt P31749); test: ELISA, C-tL immobilised on streptavidin plate, 25 nM His6 tagged full protein, anti His6 detection, triplicate
Sequence of Active Akt1 (with N terminal His6 tag) (human) (P31749 other isoform, or with tags, fused parts or gaps): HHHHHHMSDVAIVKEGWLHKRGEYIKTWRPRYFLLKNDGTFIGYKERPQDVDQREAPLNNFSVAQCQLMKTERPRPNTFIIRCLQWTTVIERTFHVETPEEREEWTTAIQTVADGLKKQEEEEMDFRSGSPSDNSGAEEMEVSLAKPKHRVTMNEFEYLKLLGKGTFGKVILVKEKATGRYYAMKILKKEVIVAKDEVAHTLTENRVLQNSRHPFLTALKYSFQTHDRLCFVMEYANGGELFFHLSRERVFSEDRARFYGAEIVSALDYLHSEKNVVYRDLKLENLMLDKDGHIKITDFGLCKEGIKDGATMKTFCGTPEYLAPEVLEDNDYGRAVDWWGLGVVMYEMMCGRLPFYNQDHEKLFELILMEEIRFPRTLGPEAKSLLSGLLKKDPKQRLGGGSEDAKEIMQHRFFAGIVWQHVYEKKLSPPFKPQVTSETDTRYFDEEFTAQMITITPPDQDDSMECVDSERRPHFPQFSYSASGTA

[5] = biological target: Active Akt3 (with N terminal His6 tag) (human) (UniProt Q9Y243); test: as above
Sequence of Active Akt3 (with N terminal His6 tag) (human) (Q9Y243 other isoform, or with tags, fused parts or gaps): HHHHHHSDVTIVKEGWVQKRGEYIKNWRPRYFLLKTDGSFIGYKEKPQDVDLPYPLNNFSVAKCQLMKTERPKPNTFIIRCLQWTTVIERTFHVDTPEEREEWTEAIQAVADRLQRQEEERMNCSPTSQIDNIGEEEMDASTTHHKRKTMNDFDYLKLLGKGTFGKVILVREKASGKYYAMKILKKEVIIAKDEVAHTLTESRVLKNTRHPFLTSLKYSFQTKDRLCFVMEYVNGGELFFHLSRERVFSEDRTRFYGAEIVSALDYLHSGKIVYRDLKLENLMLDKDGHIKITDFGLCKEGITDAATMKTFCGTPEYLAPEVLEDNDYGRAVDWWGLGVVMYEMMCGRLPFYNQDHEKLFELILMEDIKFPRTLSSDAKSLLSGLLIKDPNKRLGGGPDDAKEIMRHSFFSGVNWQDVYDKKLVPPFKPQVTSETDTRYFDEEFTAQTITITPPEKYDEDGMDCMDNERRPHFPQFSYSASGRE

[6] = biological target: Active Akt2 (with N terminal His6 tag) (human) (UniProt P31751); test: not stated there (summary of the ELISA and SPR results)
[7] = biological target: Active Akt2 (with N terminal His6 tag) (human) (UniProt P31751); test: single component ELISA, N-tL as surface-localized capture agent (FIG. 23A)
[8] = biological target: Active Akt2 (with N terminal His6 tag) (human) (UniProt P31751); test: SPR, Biacore T100, N-tL immobilised on SA chip, Akt2 protein as analyte, 1:1 model, 10° C.
[9] = biological target: Active Akt2 (with N terminal His6 tag) (human) (UniProt P31751); test: single-component ELISA (bi-L as detection agent, FIG. 23A)
[10] = biological target: Active Akt2 (with N terminal His6 tag) (human) (UniProt P31751); test: single-component immunoassay (ELISA, mono-L as detection agent, FIG. 23A)
[11] = biological target: T1, N-tL (not fully specified)
T1 chain 1: WKVKL
T1 chain 2: HNGYF
T1 chain 3: XYYRFG

B1: C-tL (peptide)
peptide 1: Ac-[Lys(N3)][dH][dD]GG[dF]-NH2
peptide 2: {S3″}-[dW][dK][dV][dK]-{D‑Lys(pentyne)-NH2}
peptide 3: [dH][dN]G[dY][dF][dPra]
modifications: not fully specified (bridges); also: branched three-arm conjugate, triazole at chain A 1 to a chain's C-terminus, triazole to a chain's N/C-terminus via S3
Akt2 kinase activity: phosphorylation of the GSK-3α/β substrate, Western blot, EC50 [1]: 4 µM | selectivity ratio (p-Akt2 over Akt2) (fold (ratio, reference p-Akt2)) [2]: 5 | EC50 [3]: 0.125 µM | selectivity ratio (Akt2 over Akt1) (fold (ratio, reference full-length Akt2)) [4]: 5 | selectivity ratio (Akt2 over Akt3) (fold (ratio, reference full-length Akt2)) [5]: 10

B5: Active Akt2 (with N terminal His6 tag) (protein)
chain: HHHHHHMNEVSVIKEGWLHKRGEYIKTWRPRYFLLKSDGSFIGYKERPEAPDQTLPPLNNFSVAECQLMKTERPRPNTFVIRCLQWTTVIERTFHVDSPDEREEWMRAIQMVANSLKQRAPGEDPMDYKCGSPSDSSTTEEMEVAVSKARAKVTMNDFDYLKLLGKGTFGKVILVREKATGRYYAMKILRKEVIIAKDEVAHTVTESRVLQNTRHPFLTALKYAFQTHDRLCFVMEYANGGELFFHLSRERVFTEERARFYGAEIVSALEYLHSRDVVYRDIKLENLMLDKDGHIKITDFGLCKEGISDGATMKTFCGTPEYLAPEVLEDNDYGRAVDWWGLGVVMYEMMCGRLPFYNQDHERLFELILMEEIRFPRTLSPEAKSLLAGLLKKDPKQRLGGGPSDAKEVMEHRFFLSINWQDVVQKKLLPPFKPQVTSEVDTRYFDDEFTAQSITITPPDRYDSLGLLELDQRTHFPQFSYSASIRE
Akt2 kinase activity: phosphorylation of the GSK-3α/β substrate, Western blot [11]: The N-tL was found to activate Akt2

The remaining lines, values ahead:

affinity [6]: 20 nM | EC50 [7]: 0.019 µM | Kd [8]: 0.025 µM
B2: N-tL (peptide)
peptide 1: [dW][dK][dV][dK][dL]
peptide 2: [dH][dN]G[dY][dF]
peptide 3: Ac-[dPra][dY][dY][dR][dF]G-NH2
modifications: not fully specified (bridges)

affinity [9]: 1 µM
B3: bi-L (peptide)
peptide 1: {S3(3)}-[dW][dK][dV][dK][dL]-NH2
peptide 2: [dH][dN]G[dY][dF][dPra]
modifications: triazole (positions not given here); also: branched two-arm conjugate, triazole to a chain's N/C-terminus via S3

affinity [10]: 3 µM
B4: mono-L (peptide)
peptide: [dPra][dW][dK][dV][dK][dL]-NH2
modifications: not fully specified (residue 1, N-terminus); printed as (D-Pra)-wkvkl; also: D-Pra side chain clicked (triazole) to azide of S1 (azidolysine-PEG2-biotin), biotin label
